Patent publication US20230114801A1 (SYSTIMMUNE, published 2023)

What was measured:
[1] = target: T1, human CD3 (human, UniProt P07766 23-126; P04234 22-105); experiment: BLI (Octet), binder on AHC sensor, 100 nM human CD3, 1:1 fit
T1 construct: also called His-tagged human CD3; human CD3 (Acro CDD-H52W1)

[2] = target: T2, human HER3 (human, UniProt P21860 20-643); experiment: BLI (Octet), binder on AHC sensor, 200 nM human HER3, 1:1 fit
T2 construct: Soluble antigen in Octet; bought; also called human HER3 (Acro ER3-H5223)

[3] = target: T3, human 4-1BB (human, UniProt Q07011 24-186, limits assumed); experiment: BLI (Octet), binder on AHC sensor; antigen conditions not stated
T3 construct: Soluble antigen in Octet; construct not described

[4] = target: T4, human PD-L1 (human, UniProt Q9NZQ7 19-238); experiment: as above
T4 construct: Soluble antigen in Octet; bought; also called human PD-L1 (Acro PD1-H5229)

[5] = target: T5, CD19 (UniProt P15391 20-291, limits assumed); experiment: as above
T5 sequence (looked up): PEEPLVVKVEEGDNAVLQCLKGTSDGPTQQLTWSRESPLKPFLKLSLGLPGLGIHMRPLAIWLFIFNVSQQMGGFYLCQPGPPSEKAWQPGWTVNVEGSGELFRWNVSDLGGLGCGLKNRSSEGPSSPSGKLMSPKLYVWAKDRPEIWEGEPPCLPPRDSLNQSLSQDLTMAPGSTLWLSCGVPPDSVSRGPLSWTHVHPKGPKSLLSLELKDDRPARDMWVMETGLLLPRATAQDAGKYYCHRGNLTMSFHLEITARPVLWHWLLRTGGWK

[6] = target: T1, human CD3; experiment: BLI (Octet), binder on AHC sensor, His-tagged human CD3 (series from 200 nM or single 100 nM), 1:1 fit

B1: SI-75X9 (bispecific antibody, human IgG1, kappa, L234A L235A)
chain 1: QVQLQESGGRLVQPGEPLSLTCKTSGIDLSSNAIGWVRQAPGKGLEWIGVIFGSGNTYYASWAKGRFTISRSTSTVYLKMNSLRSEDTAIYYCARGGYSSDIWGQGTLVTVSSASTKGPSVFPLAPSSKSTSGGTAALGCLVKDYFPEPVTVSWNSGALTSGVHTFPAVLQSSGLYSLSSVVTVPSSSLGTQTYICNVNHKPSNTKVDKRVEPKSCDKTHTCPPCPAPEAAGGPSVFLFPPKPKDTLMISRTPEVTCVVVDVSHEDPEVKFNWYVDGVEVHNAKTKPREEQYNSTYRVVSVLTVLHQDWLNGKEYKCAVSNKALPAPIEKTISKAKGQPREPQVYTLPPSRDELTKNQVSLSCAVKGFYPSDIAVEWESNGQPENNYKTTPPVLDSDGSFFLVSKLTVDKSRWQQGNVFSCSVMHEALHNHYTQKSLSLSPG
chain 2: QVQLVQSGGGLVQAGGSLSLSCAFSGRTFSMYTMGWFRQAPGKEREFVAANRGRGLSPDIADSVNGRFTISRDNAKNTLYLQMDSLKPEDTAVYYCAADLQYGSSWPQRSSAEYDYWGQGTTVTVSSGGGGSGGGGSDPQLTQSPSSLSATVGQRVTINCQSSQSVAKNNNLAWFQQKPGKPPKLLIYSASTLAAGVPSRFSGSGSGTQFTLTITRVQSEDFATYYCSARDSGNIQSFGGGTRVEIKRTVAAPSVFIFPPSDEQLKSGTASVVCLLNNFYPREAKVQWKVDNALQSGNSQESVTEQDSKDSTYSLSSTLTLSKADYEKHKVYACEVTHQGLSSPVTKSFNRGECGGDKTHTCPPCPAPEAAGGPSVFLFPPKPKDTLMISRTPEVTCVVVDVSHEDPEVKFNWYVDGVEVHNAKTKPREEQYNSTYRVVSVLTVLHQDWLNGKEYKCAVSNKALPAPIEKTISKAKGQPREPQVYTLPPSRDELTKNQVSLWCLVKGFYPSDIAVEWESNGQPENNYKTTPPVLDSDGSFFLYSKLTVDKSRWQQGNVFSCSVMHEALHNRFTQKSLSLSPG
notes: bi-miniGNC; D2 αHER3 VHH, D3 αCD3* (Fab)
With B1 the Kd [1] was 84.2 nM and the Kd [2] was 3.86 nM.

B2: SI-68P17 (other)
chain 1: DVVMTQSPSTLSASVGDRVTINCQASESISSWLAWYQQKPGKAPKLLIYEASKLASGVPSRFSGSGSGTEFTLTISSLQPDDFATYYCQGYFYFISRTYVNSFGGGTKVEIKGGGGSGGGGSGGGGSGGGGSEVQLVESGGGLVQPGGSLRLSCAASGFTISTNAMSWVRQAPGKGLEWIGVITGRDITYYASWAKGRFTISRDNSKNTLYLQMNSLRAEDTAVYYCARDGGSSAITSNNIWGQGTLVTVSSGGGGSGGGGSQVQLQQSGPGLVKPSETLSITCTVSGFSLTNYGVHWIRQAPGKGLEWLGVIWSGGNTDYNTPFTSRFTITKDNSKNQVYFKLRSVRADDTAIYYCARALTYYDYEFAYWGQGTLVTVSSASTKGPSVFPLAPSSKSTSGGTAALGCLVKDYFPEPVTVSWNSGALTSGVHTFPAVLQSSGLYSLSSVVTVPSSSLGTQTYICNVNHKPSNTKVDKRVEPKSCDKTHTCPPCPAPEAAGGPSVFLFPPKPKDTLMISRTPEVTCVVVDVSHEDPEVKFNWYVDGVEVHNAKTKPREEQYNSTYRVVSVLTVLHQDWLNGKEYKCAVSNKALPAPIEKTISKAKGQPREPQVYTLPPSRDELTKNQVSLSCAVKGFYPSDIAVEWESNGQPENNYKTTPPVLDSDGSFFLVSKLTVDKSRWQQGNVFSCSVMHEALHNHYTQKSLSLSPGGGGGSGGGGSDVVMTQSPSSVSASVGDRVTITCQASQNIRTYLSWYQQKPGKAPKLLIYAAANLASGVPSRFSGSGSGTDFTLTISDLEPGDAATYYCQSTYLGTDYVGGAFGGGTKLTVLGGGGSGGGGSGGGGSGGGGSEVQLVESGGGLVQPGGSLRLSCTASGFTISSYHMQWVRQAPGKGLEYIGTISSGGNVYYASSARGRFTISRPSSKNTVDLQMNSLRAEDTAVYYCARDSGYSDPMWGQGTLVTVSS
chain 2: ENVLTQSPASLSASPGERVTITCSASSSVSYMHWYQQKPGQAPKLWIYDTSKLASGVPSRFSGSGSGNDHTLTISSMEPEDFATYYCFQGSVYPFTFGQGTKVTVLGGGGSGGGGSGGGGSGGGGSQVTLKESGPGLVQPGQTLSLTCAFSGFSLSTSGMGVGWIRQPPGKGLEWLAHIWWDDDKRYNPALKSRLTISKDTSKNQVYLQMNSLDAEDTAVYYCARMELWSYYFDYWGQGTLVTVSSGGGGSGGGGSEIVLTQSPSTLSVSPGERATFSCRASQSIGTNIHWYQQKPGKPPRLLIKYASESISGIPDRFSGSGSGTEFTLTISSVQSEDFAVYYCQQNNNWPTTFGPGTKLTVLRTVAAPSVFIFPPSDEQLKSGTASVVCLLNNFYPREAKVQWKVDNALQSGNSQESVTEQDSKDSTYSLSSTLTLSKADYEKHKVYACEVTHQGLSSPVTKSFNRGECGGDKTHTCPPCPAPEAAGGPSVFLFPPKPKDTLMISRTPEVTCVVVDVSHEDPEVKFNWYVDGVEVHNAKTKPREEQYNSTYRVVSVLTVLHQDWLNGKEYKCAVSNKALPAPIEKTISKAKGQPREPQVYTLPPSRDELTKNQVSLWCLVKGFYPSDIAVEWESNGQPENNYKTTPPVLDSDGSFFLYSKLTVDKSRWQQGNVFSCSVMHEALHNRFTQKSLSLSPGGGGGSGGGGSDIQMTQSPSTLSASVGDRVTITCQASQSISSHLNWYQQKPGKAPKLLIYKASTLASGVPSRFSGSGSGTEFTLTISSLQPDDFATYYCQQGYSWGNVDNVFGGGTKVTVLGGGGSGGGGSGGGGSGGGGSEVQLLESGGGLVQPGGSLSLSCAASGFSFSSGYDMCWVRQAPGKGLEWIACIAAGSAGITYDANWAKGRFTISRDNSKNTLYLQMNSLRAEDTAVYYCARSAFSFDYAMDLWGQGTLVTVSS
notes: penta-miniGNC; D1 αCD3, D2 αCD19, D3 αEGFR (Fab), D4 α4-1BB, D5 αPD-L1
Work on B2 yielded a Kd [3] of 26.8 nM, a Kd [4] of 2.72 nM and a Kd [5] of 5.05 nM. For the same binder, the Kd [6] was 15.8 nM.

B3: SI-68P19 (other)
chain 1: DVVMTQSPSSLSASVGDRVTISCQASESISSWLAWYQQKPGQAPKLLIYEASKLASGVPSRFSGSGSGTEFTLTISSLEPEDFATYYCQGYFYFISRTYVNSFGGGTKVEIKGGGGSGGGGSGGGGSGGGGSQQLVESGGGLVKPGGSLRLSCAASGFTISTNAMSWVRQAPGKGLEWVGVITGRDITYYASWAKGRFTISKTSKNTVYLQMNSLRAEDTAVYYCARDGGSSAITSNNIWGQGTLVTVSSGGGGSGGGGSQVQLQQSGPGLVKPSETLSITCTVSGFSLTNYGVHWIRQAPGKGLEWLGVIWSGGNTDYNTPFTSRFTITKDNSKNQVYFKLRSVRADDTAIYYCARALTYYDYEFAYWGQGTLVTVSSASTKGPSVFPLAPSSKSTSGGTAALGCLVKDYFPEPVTVSWNSGALTSGVHTFPAVLQSSGLYSLSSVVTVPSSSLGTQTYICNVNHKPSNTKVDKRVEPKSCDKTHTCPPCPAPEAAGGPSVFLFPPKPKDTLMISRTPEVTCVVVDVSHEDPEVKFNWYVDGVEVHNAKTKPREEQYNSTYRVVSVLTVLHQDWLNGKEYKCAVSNKALPAPIEKTISKAKGQPREPQVYTLPPSRDELTKNQVSLSCAVKGFYPSDIAVEWESNGQPENNYKTTPPVLDSDGSFFLVSKLTVDKSRWQQGNVFSCSVMHEALHNHYTQKSLSLSPGGGGGSGGGGSDVVMTQSPSSVSASVGDRVTITCQASQNIRTYLSWYQQKPGKAPKLLIYAAANLASGVPSRFSGSGSGTDFTLTISDLEPGDAATYYCQSTYLGTDYVGGAFGGGTKLTVLGGGGSGGGGSGGGGSGGGGSEVQLVESGGGLVQPGGSLRLSCTASGFTISSYHMQWVRQAPGKGLEYIGTISSGGNVYYASSARGRFTISRPSSKNTVDLQMNSLRAEDTAVYYCARDSGYSDPMWGQGTLVTVSS
chain 2: B2 chain 2
notes: penta-miniGNC; D1 αCD3**** (humanized framework 3), D2 αCD19, D3 αEGFR (Fab), D4 α4-1BB, D5 αPD-L1
Binder B3 has a Kd [3] of 21.2 nM, a Kd [4] of 0.7 nM and a Kd [5] of 3.44 nM. For the same binder, the Kd [6] was 16.7 nM.

B4: SI-68P18 (other)
chain 1: DVQMTQSPSTLSATVGQRVTINCQASESISSWLAWYQQKPGQPPKLLIYEASKLASGVPSRFSGSGSGTEFTLTISSLQSDDFATYYCQGYFYFISRTYVNSFGGGTRVEIKGGGGSGGGGSGGGGSGGGGSQQLLESGGRLIKPGATLRLTCKTSGFTISTNAMSWVRQPPGKGLEWIGVITGRDITYYASWAKGRFTISKTSINTVFLQMRSLRAEDTAVYYCARDGGSSAITSNNIWGRGTLVTVSSGGGGSGGGGSQVQLQQSGPGLVKPSETLSITCTVSGFSLTNYGVHWIRQAPGKGLEWLGVIWSGGNTDYNTPFTSRFTITKDNSKNQVYFKLRSVRADDTAIYYCARALTYYDYEFAYWGQGTLVTVSSASTKGPSVFPLAPSSKSTSGGTAALGCLVKDYFPEPVTVSWNSGALTSGVHTFPAVLQSSGLYSLSSVVTVPSSSLGTQTYICNVNHKPSNTKVDKRVEPKSCDKTHTCPPCPAPEAAGGPSVFLFPPKPKDTLMISRTPEVTCVVVDVSHEDPEVKFNWYVDGVEVHNAKTKPREEQYNSTYRVVSVLTVLHQDWLNGKEYKCAVSNKALPAPIEKTISKAKGQPREPQVYTLPPSRDELTKNQVSLSCAVKGFYPSDIAVEWESNGQPENNYKTTPPVLDSDGSFFLVSKLTVDKSRWQQGNVFSCSVMHEALHNHYTQKSLSLSPGGGGGSGGGGSDVVMTQSPSSVSASVGDRVTITCQASQNIRTYLSWYQQKPGKAPKLLIYAAANLASGVPSRFSGSGSGTDFTLTISDLEPGDAATYYCQSTYLGTDYVGGAFGGGTKLTVLGGGGSGGGGSGGGGSGGGGSEVQLVESGGGLVQPGGSLRLSCTASGFTISSYHMQWVRQAPGKGLEYIGTISSGGNVYYASSARGRFTISRPSSKNTVDLQMNSLRAEDTAVYYCARDSGYSDPMWGQGTLVTVSS
chain 2: B2 chain 2
notes: penta-miniGNC; D1 αCD3*** (humanized framework 2), D2 αCD19, D3 αEGFR (Fab), D4 α4-1BB, D5 αPD-L1
Binder B4 has a Kd [3] of 7.51 nM, a Kd [4] of 1 nM and a Kd [5] of 1.35 nM. The Kd [6] was 14.5 nM.
